Data on three molecules can be found in patent US9046524B1, “Method to quantify and measure excess colipase in a pancreatin active pharmaceutical ingredient” (Scientific Protein Laboratories, LLC, priority 2012, dated 2015).

Common to all, as to assay type: biochemical
The target in data set [1] is T1, lipase (Sus scrofa, UniProt P00591).
T1 construct: purchased USP Rockville, Md; 1494079
T1 sequence (P00591 1-450): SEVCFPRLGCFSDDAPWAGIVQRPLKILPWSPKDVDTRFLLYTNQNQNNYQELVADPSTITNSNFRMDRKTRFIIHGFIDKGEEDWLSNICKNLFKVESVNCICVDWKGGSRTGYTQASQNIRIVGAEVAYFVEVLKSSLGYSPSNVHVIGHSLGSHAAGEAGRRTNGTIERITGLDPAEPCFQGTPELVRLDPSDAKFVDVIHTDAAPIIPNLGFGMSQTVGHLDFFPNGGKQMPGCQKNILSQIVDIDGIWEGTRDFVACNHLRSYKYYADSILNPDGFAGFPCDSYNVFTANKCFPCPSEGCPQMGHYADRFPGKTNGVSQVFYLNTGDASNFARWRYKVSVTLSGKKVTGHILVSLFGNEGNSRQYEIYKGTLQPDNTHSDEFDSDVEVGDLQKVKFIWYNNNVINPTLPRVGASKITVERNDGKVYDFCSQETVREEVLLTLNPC
Nature of the data set: Bile salt (Na-TDC) inhibition of lipase activity against tributyrin. The procedure:
Lipase activity against tributyrin is assayed with different concentration of TDC to determine the CMC for inhibition. The minimum TDC concentration to achieve sufficient inhibition of lipase activity is determined. Five different concentrations (1, 4, 8, 12 and 16 mM) of sodium taurodeoxy-cholate (Na-TDC) are used to determine the CMC of bile salt on two concentrations of lipase (2.5 and 5.0 μg/mL). […] As shown also in FIG. 4, increasing the concentration of bile salt above the CMC results in a progressive inhibition of lipase activity (4-16 mM Na-TDC). […] The lipase inhibition with higher concentration of bile salt (above CMC) is more consistent with the lipase at 5.0 μg/mL when compared to 2.5 μg/mL lipase (FIG. 4).

The target in data set [2] is T2, pancreatin lipase (Sus scrofa, UniProt P00591).
T2 construct: purchased USP Rockville, Md; 1494079; host or cells: also pancreatin API samples #1, #2, #3 (pancreas extract)
T2 sequence (P00591 1-450): T1 sequence (P00591 1-450)
Put plainly: Orlistat inhibition of lipase activity on GTB substrate. The conditions noted are these: 1.0 μM Lipase:Orlistat equal molar, 5 minutes on ice; USP Lipase and pancreatin samples #1, #2, #3; 1 mM Na-TDC.
Procedure: To check the specificity of the substrate GTB, an inhibition experiment is conducted with the specific inhibitor Orlistat (Tetrahydrolipstatin, THL, Sigma #04139). […] To check the specificity of GTB substrate, bile salt below CMC concentration (1 mM Na-TDC) is chosen to obtain maximum lipase activity.
The Orlistat is dissolved in dimethyl sulfoxide (DMSO) to obtain 1.0 mg/mL stock solution. Lipase (USP) and pancreatin samples #1, #2 and #3 are mixed with Orlistat at equal molar concentrations (1.0 μM Lipase:Orlistat) and incubated for 5 minutes on ice. The assays are performed on USP Lipase and pancreatin API samples with and without Orlistat. All the samples are titrated with 0.005 M NaOH for 5 minutes in a glass mixing chamber with 30 mL of substrate mix containing 1 mM Na-TDC at 37° C. temperature and pH 7.5.

For data set [3], the target named is T3, lipase (Sus scrofa, UniProt P00591).
T3 construct: from tissue; host or cells: pancreatin API batches (pancreas extract)
T3 sequence (P00591 1-450): T1 sequence (P00591 1-450)
T3 sequence (P02703 23-112 partner): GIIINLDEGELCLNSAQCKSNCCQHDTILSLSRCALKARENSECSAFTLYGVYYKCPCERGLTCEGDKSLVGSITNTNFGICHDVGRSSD
Nature of the data set: Reactivation of bile salt-inhibited lipase by added colipase. The procedure: In yet another embodiment, the effect of colipase on lipase activity and determination of the optimum concentration of colipase to measure the restored lipase activity is studied. The method for colipase determination is based on the principle that lipase inactivated by bile salt is reactivated by colipase (FIG. 1). FIG. 4 supports the theory of reactivation of lipase with the addition of exogenous colipase. As such, different concentrations of bile salt (0, 4, 8, 12 and 16 mM) are tested in the presence of 5.0 μg of lipase per reaction to measure the lipase activity. To each reaction beaker, a different amount of colipase (2.5, 5.0 and 10 μg) is added to the assay mixture prior to the lipase.
However, by adding different concentration of exogenous colipase (Sigma Cat #C3028), lipase activity is restored. In FIG. 5, 2.5 μg colipase, 5.0 μg colipase, and 10.0 μg colipase bars with 4, 8, 12 and 16 mM Na-TDC represent the lipase activity due to reactivation of lipase from addition of exogenous colipase. The presence of colipase at higher concentration will inhibit lypolysis. […] Although the main function of colipase is to restore the activity of the bile salt-inhibited lipase, colipase also has been reported to affect the activity of lipase in absence of bile salts by stabilizing lipase and decreasing its rate of inactivation in the presence of substrate (see Borgstrom and Brockman, 1984). […] Results reveal the most favorable amount of colipase to recover the inhibited lipase is 2.5 μg per assay with 4 mM Na-TDC.
In still another embodiment, a separate study is performed with differing amounts of lipase (2.5, 5.0 and 10 μg per reaction) to determine the maximum recovery of lipase activity in the presence of 4 mM Na-TDC and 2.5 μg added colipase. The colipase content of the sample is determined as a difference between two titration values, the blank with lipase and the test with lipase plus added colipase (test values−blank values). The accuracy of the determination is dependent on the relative proportion between lipase and colipase.
The activity in the absence of added colipase increases with increase in lipase amount, due to presence of endogenous colipase. Further, the lipase activity increases by adding exogenous colipase.

For the molecule `C[C@H](CCC(=O)NCCS(=O)(=O)[O-])[C@H]1CC[C@H]2[C@@H]3CC[C@@H]4C[C@H](O)CC[C@]4(C)[C@H]3C[C@H](O)[C@]12C.O.[Na+]` [Na-TDC, sodium taurodeoxycholate hydrate], the “effect on lipase activity below CMC” value in data set [1] (1 mM Na-TDC compared to 0 mM) is given as “enhancement in lipase activity”. The “effect on lipase activity above the CMC” value in data set [1] (4, 8, 12 & 16 mM Na-TDC, lipase 2.5 and 5.0 μg/mL) is on record as “almost complete inhibition of lipase activity”.

On to `CCCCCCCCCCC[C@@H](C[C@@H]1OC(=O)[C@H]1CCCCCC)OC(=O)[C@H](CC(C)C)NC=O` [Orlistat], for which the “inhibition of lipase activity” value in data set [2] turned out to be 90%.

B1: colipase: Colipase Standard: Sigma Colipase from porcine pancreas Cat #C3028 (protein, UniProt P02703 23-112, looked up)
Colipase: T3 sequence (P02703 23-112 partner)
Turning to B1, the restored lipase activity in data set [3] (2.5 μg colipase, 4 mM Na-TDC, 10.0 μg lipase) was determined as 0.23 fold. For the same molecule, the “increase in restored lipase activity” value in data set [3] (2.5 μg colipase, 4 mM Na-TDC, 2.5 and 5.0 μg of lipase) is “two-fold”. For the same molecule, the “increase in lipase activity by addition of colipase” value in data set [3] (2.5 μg colipase, without bile salt, 5.0 μg lipase) is on record as “about 1.5 fold”. Further, the “restored lipase activity with 5 and 10 μg colipase, fold lower than with 2.5 μg colipase” value in data set [3] (16 mM TDC) was found to be 4 fold.
